In patent US20240368242A1:

Molecular target: recombinant murine CD40 protein (murine) (UniProt P27512)
Assay: SPR, binding to mCD40

Sequence of recombinant murine CD40 protein (murine) (P27512 24-193 limits assumed): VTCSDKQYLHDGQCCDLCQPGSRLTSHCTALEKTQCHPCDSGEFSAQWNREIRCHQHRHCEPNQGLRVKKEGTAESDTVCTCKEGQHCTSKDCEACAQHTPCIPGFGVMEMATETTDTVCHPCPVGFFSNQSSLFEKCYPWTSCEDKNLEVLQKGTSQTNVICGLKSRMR

B1: mCD40L-Fc (Fc fusion, from a related filing)
chain: MQRGDEDPQIAAHVVSEANSNAASVLQWAKKGYYTMKSNLVMLENGKQLTVKREGLYYVYTQVTFCSNREPSSQRPFIVGLWLKPSSGSERILLKAANTHSSSQLCEQQSVHLGGVFELQAGASVFVNVTEASQVIHRVGFSSFGLLKL
modifications: left off: a dimerising Fc or GST
A Kd of 3.23 nM, a koff of 9.81e-05 s⁻¹ and a kon of 30400 M⁻¹ s⁻¹ were found for B1 in this work.
